Measured values from paper doi:10.1101/2020.02.24.962464, “Kinetics characterization of ASXL1/2-mediated allosteric regulation of BAP1 deubiquitinase” (bioRxiv, 2020).
Several values for one entry are separate records, joined by “and”; a condition that tells them apart may be missing. Equal entries are not always repeated.

T1: full-length His-BAP1 (Bv-His-BAP1-FL-WT) (human, UniProt Q92560 1-729)
T1 sequence (looked up): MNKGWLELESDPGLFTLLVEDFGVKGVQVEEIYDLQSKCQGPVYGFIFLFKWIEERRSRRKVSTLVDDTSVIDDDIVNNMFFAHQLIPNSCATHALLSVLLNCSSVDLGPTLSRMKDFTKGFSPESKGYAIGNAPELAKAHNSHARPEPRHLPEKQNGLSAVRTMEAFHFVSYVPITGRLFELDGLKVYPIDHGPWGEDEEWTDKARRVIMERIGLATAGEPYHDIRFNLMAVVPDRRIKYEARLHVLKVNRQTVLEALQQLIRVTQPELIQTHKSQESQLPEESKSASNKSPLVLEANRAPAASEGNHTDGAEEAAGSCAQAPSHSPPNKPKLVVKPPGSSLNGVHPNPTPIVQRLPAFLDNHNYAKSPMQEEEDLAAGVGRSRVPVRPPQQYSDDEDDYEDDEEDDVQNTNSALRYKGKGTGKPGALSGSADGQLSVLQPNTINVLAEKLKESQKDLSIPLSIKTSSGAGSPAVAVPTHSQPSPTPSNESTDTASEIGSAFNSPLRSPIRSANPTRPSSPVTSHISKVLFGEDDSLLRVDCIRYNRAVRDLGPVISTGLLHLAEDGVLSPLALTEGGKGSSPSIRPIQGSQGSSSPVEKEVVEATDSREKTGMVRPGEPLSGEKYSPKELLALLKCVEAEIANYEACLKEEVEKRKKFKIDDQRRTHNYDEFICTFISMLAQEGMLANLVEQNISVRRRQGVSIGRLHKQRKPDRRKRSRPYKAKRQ

T2: full-length His-BAP1 (Bv-His-BAP1-FL-WT) (human, UniProt Q92560 1-729)
T2 chain: T1 sequence (looked up)

T3: GST-BAP1-ULD (human, UniProt Q92560 601-729)
T3 construct: BAP1, human, ULD domain; also called GST-ULD; pGEX-4T-1-BAP1-ULD; source: E. coli BL21 (DE3), purified (GST resin, native conditions)
T3 sequence (looked up): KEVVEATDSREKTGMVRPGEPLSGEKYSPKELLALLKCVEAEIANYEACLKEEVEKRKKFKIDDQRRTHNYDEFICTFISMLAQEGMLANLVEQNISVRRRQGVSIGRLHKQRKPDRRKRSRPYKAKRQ

B1: His-ULD/AB protein complex (pETDuet-1-His-BAP1-ULD+ASXL2-AB) (complex, human)
chain 1: T3 sequence (looked up)
chain 2: MKRTKCADIDVETPDSILVNTNLRALINKHTFSVLPGDCQQRLLLLLPEVDRQVGPDGLMKLNGSALNNEFFTSAAQGWKERLSEGEFTPEMQVRIRQEIEKEKKVEPWKEQFFESYYGQS
notes: BAP1, human, ULD domain; ASXL2, human, AB box; Complex formed beforehand by co-expression; used as one analyte in pull-down, SPR and Ub-AMC assays; also called ULD/AB complex; Duet-His-ULD/AB; source: E. coli Rosetta 2 (DE3) pLysS, co-expressed from pETDuet-1, purified (cobalt beads, Talon, native conditions)
B2: His-BAP1-ULD (601-729 aa) (domain or fragment, human, UniProt Q92560 601-729, looked up)
chain: T3 sequence (looked up)
notes: BAP1, human, UCH37-like domain (ULD), residues 601-729 (pQE30-BAP1-ULD); also called His-ULD; ULD domain
B3: His-ASXL2-AB (261-381 aa) (domain or fragment, human, UniProt Q76L83 261-381, looked up)
chain: B1 chain 2
notes: ASXL2, human, AB box, residues 261-381 (pQE30-ASXL2-AB); also called His-AB; AB box
B4: GST-BAP1-UCH-WT (1-250 aa) (domain or fragment, human, UniProt Q92560 1-250, looked up)
chain: MNKGWLELESDPGLFTLLVEDFGVKGVQVEEIYDLQSKCQGPVYGFIFLFKWIEERRSRRKVSTLVDDTSVIDDDIVNNMFFAHQLIPNSCATHALLSVLLNCSSVDLGPTLSRMKDFTKGFSPESKGYAIGNAPELAKAHNSHARPEPRHLPEKQNGLSAVRTMEAFHFVSYVPITGRLFELDGLKVYPIDHGPWGEDEEWTDKARRVIMERIGLATAGEPYHDIRFNLMAVVPDRRIKYEARLHVLKV
notes: BAP1, human, ubiquitin C-terminal hydrolase (UCH) domain, residues 1-250 (pGEX-2TK-BAP1-UCH-WT); also called GST-UCH; pGEX-2TK-BAP1-UCH-WT; source: E. coli BL21 (DE3), purified (GST resin, native conditions)

Legend:
[1] = target: T1, full-length His-BAP1 (Bv-His-BAP1-FL-WT); experiment: cell-based or functional assay
[2] = target: T2, full-length His-BAP1 (Bv-His-BAP1-FL-WT); experiment: SPR; steady-state equilibrium
[3] = target: T1, full-length His-BAP1 (Bv-His-BAP1-FL-WT); experiment: SPR; Biacore T200; full-length His-BAP1, GST-UCH or GST alone amine-coupled to a CM5 chip (~3000 RU), His-ULD/AB complex injected; 25 mM HEPES pH 7.4, 250 mM NaCl, 5 mM DTT, 0.05% Tween20; steady-state and kinetic one-site fits; conditions: both partners purified
[4] = target: B3; experiment: ITC; Microcal ITC 200; His-AB 77 µM in the cell, His-ULD 574 µM titrated; 50 mM potassium phosphate pH 7.5, 200 mM potassium chloride, 1 mM TCEP; duplicate; conditions: both partners purified
[5] = target: B2; experiment: as above; conditions: both partners purified
[6] = target: T3, GST-BAP1-ULD; experiment: SPR; Biacore T200; GST-ULD captured by anti-GST antibody on a CM5 chip (400 RU), His-AB injected; 25 mM HEPES pH 7.4, 150 mM NaCl, 5 mM DTT, 0.05% Tween20; steady-state and kinetic one-site fits; conditions: both partners purified
[7] = target: B1; experiment: SPR; Biacore T200; full-length His-BAP1, GST-UCH or GST alone amine-coupled to a CM5 chip (~3000 RU), His-ULD/AB complex injected; 25 mM HEPES pH 7.4, 250 mM NaCl, 5 mM DTT, 0.05% Tween20; steady-state and kinetic one-site fits; conditions: both partners purified

Binder: B1
fold increase of BAP1 specific activity (100 nM Ub-AMC) with increasing concentrations of His-ULD/AB [1]: 4.5 fold
Kd [2]: 740 nM
Kd [3]: 850 nM and 1910 nM
koff [3]: 0.033 s⁻¹
kon [3]: 39000 M⁻¹ s⁻¹

Binder: B2
dH [4]: -9.87 kcal/mol
stoichiometry N [4]: 1

Binder: B3
Kd [5]: ~4260 nM
Kd [6]: 134 nM and 67 nM
koff [6]: 0.0024 s⁻¹
kon [6]: 38000 M⁻¹ s⁻¹
fold increase of the maximal velocity of BAP1 cleavage of Ub-AMC with increasing concentrations of ASXL2-AB [1]: 2.5 fold

Binder: B4
koff [7]: 0.044 s⁻¹
kon [7]: 19000 M⁻¹ s⁻¹
